Results taken from publication PMC4591933 (Cancer research, 2008).

Target: EGFR-NLuc (human EGF receptor fused to the N-terminal fragment of firefly luciferase) (human, UniProt P00533 25-1210)
Assay: split reporter

B1: Shc-CLuc (human p52Shc fused to the C-terminal fragment of firefly luciferase) (natural protein, UniProt P29353-2 1-473, looked up)
chain: MNKLSGGGGRRTRVEGGQLGGEEWTRHGSFVNKPTRGWLHPNDKVMGPGVSYLVRYMGCVEVLQSMRALDFNTRTQVTREAISLVCEAVPGAKGATRRRKPCSRPLSSILGRSNLKFAGMPITLTVSTSSLNLMAADCKQIIANHHMQSISFASGGDPDTAEYVAYVAKDPVNQRACHILECPEGLAQDVISTIGQAFELRFKQYLRNPPKLVTPHDRMAGFDGSAWDEEEEEPPDHQYYNDFPGKEPPLGGVVDMRLREGAAPGAARPTAPNAQTPSHLGATLPVGQPVGGDPEVRKQMPPPPPCPGRELFDDPSYVNVQNLDKARQAVGGAGPPNPAINGSAPRDLFDMKPFEDALRVPPPPQSVSMAEQLRGEPWFHGKLSRREAEALLQLNGDFLVRESTTTPGQYVLTGLQSGQPKHLLLVDPEGVVRTKDHRFESVSHLISYHMDNHLPIISAGSELCLQQPVERKL
With B1 the “fold induction of reconstituted luciferase over control, 15 min after EGF” value was 2.5 fold over control.
